Data taken from the DeepSol protein solubility set.

Assay: soluble on expression in E. coli; label from the status in PepcDB or PDB records
For “MSLKLRARLPRGLADRGPAEIAATRAMVEKIREVYERYGFEPVETPAFEYTDALGKFLPDQDRPNEGVFSLQDDDEQWISLRYDLTAPLARYVAENFDQLPKPHRSYRFGWVFRNEKPGPGRFRQFMQFDADTVGAPTAAADAEMCMMAADTMEALGIPRGSYVVKVNNRKVLDGVLESIGLGGDENAGRRLTVLRAIDKSDKFAPEEIKKLLGPGRWDGGEEGKGDFTKGAMLSDDQSELILRATSPSFIAGRFNADGSGGISNIDTVELLRSTADNETLKQGCDELAVIADLLDACGYGATSANPDVRVVIDPSVVRGLEYYTGPVYEVELLLDTKDEKGRPVRFGSVGGGGRYDGLVSRFRGEPVPATGFSIGVSRLQAALTLIGQLGNKPQAGPVVVTVFGGEIAGYQKMVATLRKAGIRAELYLGNPKHSLGQQMKYADKRNSPCAIIQGSDEKQQGIVQIKDLILGAELASLEKDRDEYLKKQAEAQFSEGHHHHHH”, the “soluble on expression in E. coli” value was “not soluble”. In the case of “MSLKMFEVPVSSVSISINSALLKGCRKFMVLGYGEIGKLAIKHLLSHKVECIYLIVRDKSKASDLEGEIVEVLDFNEKNQVINEIDCIVSCTAAPHTVVRNEDIKTEGETIHIYDLAVPRDVDKELSEKERVILKDIDEISKIDDKNKKIRKERMEEYKHIVEESIDEFLNWLKIREVSSKIRNIKIREGHHHHHH”, the “soluble on expression in E. coli” value is reported as “not soluble”. With “MSLKNILIIGANGFTGRRILNDLSVNPIYHVTGCSLRDDICPGKDYRFVRTDIRDENEVRKLFKECRPDIVINTSALSVPDYCETHHAEAEATNVTAVETIAHVCEQYGSRFIHLSTDFVFDGKSTRLYKEEDEAIPVNYYGVTKLKAEKIIASICSNYAIVRVVVVYGKALPGQHGNILQLVANRLRNGETIRVVSDQWRTPTFVGDISVGVEKLMFHTANGIYHICGSECLTIAEIAYRVADFLKLDRSLIEPVTTEEMKEVTPRPRFSGLSIEKAKAEIGYTPRTLEEGMEASEGHHHHHH” the “soluble on expression in E. coli” value was “soluble”. For “MSLKNISLAMLARQIGVGVATVDRVLNERGGVSPQTTRKVLQAAREAGLKRILPEEHRFPWQIEVFLSSNDSFFFPQLAQDFAAVADSLGYRRLTLHRTFVPESQPTTLARRIARSCQQRQGIIVFGNDHPAVHDALRRCREAGVPAITLATDLPGADRLCHVGINQLQAGRTAGLMLGRMTPRPGEVLMVSGRQDYSAHRLRIQGFREVLSQRFPHLQLSDVLAGEERREQITRLVEQALCRSRNIVGIYNTGLGNTQIAEALARHRREGDVCWITHERYNTTRQQLAKGSLALTLDQNTRQHAQLAIDLMLRHLESGYQPQTYADGKVDFILYSAENVDEGHHHHHH”, the “soluble on expression in E. coli” value was “soluble”. With “MSLKNKLQVKIPGKLYVAGEYAVVESGHTAILTAVNRYITLTLEDSERNELWIPHYENPVSWPIGGELKPDGEHWTFTAEAINIATTFLKSEGIELTPVKMVIETELIDQSGAKYGLGSSAAATVAVINALMTKFYPEISMLKKFKLAALSHLVVQGNGSCGDIASCMYGGWIAYTTFDQEWVKHRLAYKSLEWFMKEPWPMLQIETLEEPVPTFSVGWTGTPVSTGKLVSQIHAFKQEDSKNYQHFLTRNNEIMKQIIQAFHTKDEELLYSSIKENRRILQELGTKAGVNIETSLLKELADSAENMGGAGKSSGSGGGDCGIAFSKTKELAEKLVNEWEKLGIKHLPFHTGRVQITEGHHHHHH” the “soluble on expression in E. coli” value was “soluble”. For “MSLKNQLGQLALEQAKTFGGKLEVQPKVDIKTKHDLSIAYTPGVASVSSAIAKDKTLAYDLTTKKNTVAVISDGTAVLGLGDIGPEAAMPVMEGKAALFKAFAGVDAIPIVLDTKDTEEIISIVKALAPTFGGINLEDISAPRCFEIEQRLIKECHIPVFHDDQHGTAIVVLAAIFNSLKLLKKSLDEVSIVVNGGGSAGLSITRKLLAAGATKVTVVDKFGIINEQEAAQLAPHHLDIAKVTNREFKSGTLEDALEGADIFIGVSAPGVLKAEWISKMAARPVIFAMANPIPEIYPDEALEAGAYIVGTGRSDFPNQINNVLAFPGIFRGALDARAKTITVEMQIAAAKGIASLVPDDALSTTNIIPDAFKEGVAEIVAKSVRSVVLKSEGHHHHHH”, the “soluble on expression in E. coli” value was “soluble”. In the case of “MSLKNTTIADVAAAADVSVTTVSRYLNGNYQKMSAATKQRIKETIATLHYAPKASARKMRQDHSQLIGVVVGDIANVFSSLLFKGIYDVLQPAGYDVLLMNANNTATTEHGELTRLAAQQVDGIILQPSAATAAAYAGLTIPTIIVDRQLPNSPLAQVLSSNFDASYQLGQHLREQGYRRLITVGRAVAPHTAQTDRLAGLTATGLSVIHLDMTSHGAPWLTQQLRQYQQAPDKPVIISLMGPLLFEILASLKAAHLHFPADVGLVSFDDWQWSQYVNDGIYLLQQQPALMGQLAATTLLHQLSTTPTTMTQYVPVAPVVKPSLEGHHHHHH”, the “soluble on expression in E. coli” value is reported as “not soluble”. With “MSLKQKLIKKAQELRQHGFTTGEIADELNVSMDTARWLTLQKPAEEKPEAPVDFFINWKSLGGNSTRLRYVSGALSDMALSHGEAEVILGIAVSGIPFATMMADFLEDMSGVETSLAVYHPHKHRKEKDDGEGAISTNFGSVEGKKVVIVDDVITSGKTVKEVIHAVKDHGGEPIAVTVLIDKSGLSEIEEVPIESLIKVGRLEGHHHHHH” the “soluble on expression in E. coli” value was “soluble”. With “MSLKQSHIRNFAIIAHIDHGKSTLADQIMSLTQTVSAREQHAQLLDDMTVEQAHGVTVKARTVRNYYQADDGQEYEYNLIDTPGHVDFNYEVAKSLAATEGAILLVDATQGVQAQTIANYRIAKQRQLTLIPVLNKVDLPSADIDAALAQLNDLDSAFTPEQVLQISAKTGQGVPAVLEAIKQRLPAPQGDLHQPLKALVFDSLYDPYQGVIAYVRLIDGQLKSQQALCLMQGQQDFNGKAIGVFAPQMHPQESLSAGDVGYVVTGIKDPRKVRVGDTLTSVATPTQRPLAGYQPAKSMVFAGLYPKNNDYPALKEAVQKLNLNDPSFTYVEERSEALGVGFRCGFLGTFHLQIIRERLHDEYGVDVLTTAPNVTYHVTLTNGQQVIVNNPVQFPAFSLIKEVTEPFMKAEITMPADNLNAVLKLAEQHKGTLIDLANSGDLIVASLKIPLSEIAYHFFSELKSVSHGFASLSTAFMANEVSDLVKVEVDINEGHHHHHH” the “soluble on expression in E. coli” value was “soluble”. In the case of “MSLKRVSEMKFCFCGEKKDSRVKPLRVAIIGAGPAGLSAACSLACDGFDVHVYDKMPEPGGMVAFGIPEWRIPISKVRQAVKEIEELGVVFHMRTKVVYDSPKELGDEFAERFVSLEKLMKEYDAILIATGAWRPRILDIPGKELKGVENALQLLLRINLARIGYLPQTKMPSFEGKRVVVIGAGYTAVDVAKEAKLLGAKSVTIAYRRSLQDSYAKNEFKKLIKEGVKFLEYVTPVRIFGDENVREVEFAKTKVVRGSVITTEEKRTIPADVIIFAIGQIPTNPIKEVLCSNEDILKNAGIFFAGDVISPRNIGTAIREGRKVAEEIKAWLTEHAFLNIRLSYPVSLRDISKSATEGHHHHHH”, the “soluble on expression in E. coli” value is reported as “soluble”. In the case of “MSLKSELPPVQVALDLVDLPRAIEIAKEAVAGGVTWVEAGTPLIKSEGMNAIRELRKNFPTLTIVADMKTMDAGSTEVEMAAKAGANVILILGVGPDSMIIDAVKAGKKYGVLVGTDLIATEDPIKRAVELEEMGVDIINIHVGLDQQVLNVDPVELVKRVSENCKKAKIAAAGGLNSETAVKAYEAGADIIIAGGTLYKSADPEQTARDIIKGLKTGKPVKTDKFKKFNESELVSAFNVVSTSNISDAMHRTGEMKGLKPVWNSEKPLKFAGPAVTVRTYSGDWSKPVSAIDDCEAGNVLVIDNCSSEIACWGGLATLSCETKGVVAIVIDGAVRDVEEILKIGIPVFARSITPTAGEPKGFGEINAVIDCAGRTVEPGDWIVGDENGIIVVPKNEAMEIANRAIDVKEREDRVKEEITRGTTLAKTIRLKDWELKEGHHHHHH”, the “soluble on expression in E. coli” value is reported as “soluble”. For “MSLKTFLESLKFPVQEVNKKSSGEKGPGRPPYWEMVFYWTRKPLVGARSVIAGALLPENVDENLFKAAVRLSSPTPHRENPQIPAEFAKYFEGKKLLDPFAGFGSIPLEGLRLGLDVTAVELLPTTYIFLKAVLEYPKKFGKSLVKDVERWGEWITEQLKNDPEIRELYDDDVAVYIGTWEIRCPHCGRWTPAIGNFWLARVKEGHHHHHH”, the “soluble on expression in E. coli” value was “soluble”. For “MSLKTHTLPLLLSCTLFLIGACTSMPPEIRNFSAVDIPYQPVSQNAETYKDAPVRWGGTVIEVENETDFSLMQVLFHPLDRSGYPETRKPGEGRFAVEINEFLDPAIYTKGVEVTVIGTVKGNIERTIGNKTIHIPLITAKTIHLWPQAYREDNLYRYGPYPGYYGYGYPFFYNGYYRPYRFWWEGHHHHHH”, the “soluble on expression in E. coli” value was “not soluble”. In the case of “MSLKVGLKLLQTPKESMLFNIDSYKIIGIGISRGNEKYMKSTICVARNIFTNGILVGSFEGILGGRTARLCSYKFVDYFLNKVSNKVVQESIEESLISTFQRLNEKIKEKNLNDVSSGLVYVFYNKILYFAQCGSIKSYIISNSNIKEIGFDHCLSNNEMKKKIMQKGGLVDNNNMLNGVINVCKCIGESNYHNLLNTTPDITKIEYDDDFKFVLTASKSVWDVIDQNELQSIVINSAHIQPPGIANLIRNIALERNCKGNISVTILSLDSEGHHHHHH”, the “soluble on expression in E. coli” value is reported as “soluble”. With “MSLKYKRIVFKVGTSSITHSDGSLSRGKIQTITCQLAALHHAGHELVLVSSGAVAAGFGALGFKKRPVKIADKQASAAVGQGLLMEEYTANLSSDGIVSAQILLSRADFADKRRYQNAGGALSVLLQRRAVPIINENDTVSVEELKIGDNDTLSAQVAAMIQADLLVLLTDIDGLYTGNPNSNPDAVRLDKIEHINHEIIEMAGGSGSANGTGGMLTKIKAATIAAESGVPVYICSSLKPDALAEAAEHQADGSFFVPRAKGLRTQKQWLAFYSESRGSVYVDEGAEHALSEQGKSLLMSGIAGIEGHFSRMDTVTVYSKATKQPLGKGRVLFGSAAAEDLLKSRKAKGVFIHRDDWISITPEIRLLLTEFEGHHHHHH” the “soluble on expression in E. coli” value was “soluble”. With “MSLLAQLDQKIAANGGLIVSCQPVPDSPLDKPEIVAAMALAAEQAGAVAIRIEGVANLQATRAVVSVPIIGIVKRDLEDSPVRITAYIEDVDALAQAGADIIAIDGTDRPRPVPVETLLARIHHHGLLAMTDCSTPEDGLACQKLGAEIIGTTLSGYTTPETPEEPDLALVKTLSEAGCRVIAEGRYNTPAQAADAMRHGAWAVTVGSAITRLEHICQWYNTAMKKAVL” the “soluble on expression in E. coli” value was “not soluble”. In the case of “MSLLDIIFPPNNNDDDFYGQHFSLIDSIIVKVAQDSNLSQSLRVYQYLYSWRLFGCMVAVVNNNKTLELGDKRGAIEALYEFITRFRIENPTGDVERKVKLKILEIYMIILNLLKSFENNQDQWFLKTNSYKETTTTRRREGHHHHHH”, the “soluble on expression in E. coli” value is reported as “soluble”. With “MSLLEKDINLKIFKGNLIFTKTSDKFTIMKDSYIVVIDGKIASVSSNLPDKYKGNPIIDFRNNIIIPGMNDLHAHASQYKNLGIGMDKELLPWLNNYTFPEEAKFLNVDYAKKTYGRLIKDLIKNGTTRVALFATLHKDSTIELFNMLIKSGIGAYVGKVNMDYNCPDYLTENYITSLNDTEEIILKYKDKSNIVKPIITPRFVPSCSNELMDGLGKLSYKYRLPVQSHLSENLDEIAVVKSLHKKSNFYGEVYDKFGLFGNTPTLMAHCIHSSKEEINLIKRNNVTIVHCPTSNFNLGSGMMPVRKYLNLGINVVLGSDISAGHTCSLFKVIAYAIQNSKIKWQESGKKDMFLSTSEAFYMATKKGGSFFGKVGSFEEGYDFDALVINDSNLYPEDYDLTERLERFIYLGDDRNIMKRYVCGNEIFGPKFEGHHHHHH” the “soluble on expression in E. coli” value was “soluble”.
